{"source": "patent US20210115146A1", "key": {"[1]": {"target": "mouse EGFR (cell surface) (mouse) (UniProt Q01279)", "test": "FACS binding to W562-CHO-K1.mPro1.F3 cells (mouse EGFR), lower panel and table; the curve is still rising at 100 nM"}, "[2]": {"target": "Macaca fascicularis EGFR (cell surface) (Macaca fascicularis)", "test": "FACS binding to W562.CHOK1.cPro1.H6 cells (monkey EGFR), upper panel and table"}, "[3]": {"target": "mouse EGFR (cell surface) (mouse) (UniProt Q01279)", "test": "FACS binding to mouse EGFR cells; the table head prints W562.CHOK1.cPro1.H6"}, "[4]": {"target": "mouse EGFR (cell surface) (mouse) (UniProt Q01279)", "test": "FACS binding to W562-CHO-K1.mPro1.F3 cells (mouse EGFR), lower panel and table"}, "[5]": {"target": "Macaca fascicularis EGFR (cell surface) (Macaca fascicularis)", "test": "FACS binding to W562-CHO-K1.cPro1.H6 cells (monkey EGFR), lower panel and table"}}}
{"binder": "W562-BMK3 (antibody, from another filing, human IgG1, V domains shown) VH: QVQLQESGPGLVKPSETLSLTCTVSGLSLASNSVSWIRQPPGKGLEWMGVIWNHGGTDYNPSIKSRLSISRDTSKSQVFLKMNSLTAADTAMYFCVRKGGIYFDYWGQGVLVTVSS VL: DTVLTQSPSLAVSPGERATISCRASESVSTLMHWYQQKPGQQPKLLIYLASHRESGVPARFSGSGSGTDFTLTIDPMEAEDTATYYCQQSRNDPWTFGQGTKLELKR", "values": [{"measurement": "EC50", "setting": "[1]", "value": 6.41, "unit": "nM"}, {"measurement": "EC50", "setting": "[2]", "value": 1.47, "unit": "nM"}, {"measurement": "Top MFI", "setting": "[2]", "value": 37500, "unit": "MFI"}, {"measurement": "EC50", "setting": "[3]", "value": 2.42, "unit": "nM"}, {"measurement": "Top MFI", "setting": "[3]", "value": 31000, "unit": "MFI"}, {"measurement": "TOP MFI", "setting": "[4]", "value": 32800, "unit": "MFI"}, {"measurement": "EC50", "setting": "[5]", "value": 1.24, "unit": "nM"}, {"measurement": "TOP MFI", "setting": "[5]", "value": 16000, "unit": "MFI"}]}
